Reference: US20190233494A1 (Sanofi, published 2019)
Starred links: 1 amine or outer side, 2 acyl side, 3 side chain; linkers in the order of their positions; H or OH if unused. Non-standard residues stand in square brackets, D forms with d. Groups on a side chain read outwards from the residue. *: point of attachment. TTDS = 4-[3-[2-[2-(3-aminopropoxy)ethoxy]ethoxy]propylamino]-4-oxo-butanoyl; γGlu = O=C(O)[C@H](CCC(=O)[*:2])N[*:1]; Stearoyl = CCCCCCCCCCCCCCCCCC(=O)*; Palmitoyl = CCCCCCCCCCCCCCCC(=O)*; αMeK = C[C@](N)(CCCCN)C(=O)O; hLys = NCCCCC[C@H](N)C(=O)O; AEEA = NCCOCCOCC(=O)O; Aib = CC(C)(N)C(=O)O

T1: RXFP1 receptor (endogenous, on OVCAR5 cells) (UniProt Q9HBX9 1-757, limits assumed)
T1 sequence (looked up): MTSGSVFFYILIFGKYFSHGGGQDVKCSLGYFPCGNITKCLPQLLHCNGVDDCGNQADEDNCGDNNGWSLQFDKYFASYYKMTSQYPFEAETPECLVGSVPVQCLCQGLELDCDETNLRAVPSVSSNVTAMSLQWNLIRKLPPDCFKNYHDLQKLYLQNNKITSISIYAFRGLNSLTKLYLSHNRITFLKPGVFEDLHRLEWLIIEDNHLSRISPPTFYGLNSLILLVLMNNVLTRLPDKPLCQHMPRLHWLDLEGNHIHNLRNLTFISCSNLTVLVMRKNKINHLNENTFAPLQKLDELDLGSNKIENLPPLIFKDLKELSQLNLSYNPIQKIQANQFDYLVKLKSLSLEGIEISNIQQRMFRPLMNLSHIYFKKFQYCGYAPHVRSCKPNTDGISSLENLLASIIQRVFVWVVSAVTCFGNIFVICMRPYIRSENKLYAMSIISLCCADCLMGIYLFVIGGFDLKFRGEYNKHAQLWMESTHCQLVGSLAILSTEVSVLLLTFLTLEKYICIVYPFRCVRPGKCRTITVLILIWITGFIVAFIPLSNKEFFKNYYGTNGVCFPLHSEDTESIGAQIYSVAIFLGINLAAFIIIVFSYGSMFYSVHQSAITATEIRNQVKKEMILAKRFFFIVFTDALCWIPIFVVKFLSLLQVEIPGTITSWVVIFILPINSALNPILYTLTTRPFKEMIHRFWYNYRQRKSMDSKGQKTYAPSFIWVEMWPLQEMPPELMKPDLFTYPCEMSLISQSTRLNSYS


Biological target: T1, RXFP1 receptor (endogenous, on OVCAR5 …)
Assay: cell-based or functional assay

Row | Binder | EC50 (nM), OVCAR 5 cells (cAMP) | EMax, OVCAR 5 cells (cAMP)
1 | Ac-LEGREKVRAK(Ac)I[Aib][Aib]EGK([AEEA-AEEA-AEEA-AEEA-γGlu-γGlu-γGlu-Stearoyl])STWS[Aib]RKK(Ac)-NH2 (SMILES CCCCCCCCCCCCCCCCCC(=O)N[C@@H](CCC(=O)N[C@@H](CCC(=O)N[C@@H](CCC(=O)NCCOCCOCC(=O)NCCOCCOCC(=O)NCCOCCOCC(=O)NCCOCCOCC(=O)NCCCC[C@H](NC(=O)CNC(=O)[C@H](CCC(=O)O)NC(=O)C(C)(C)NC(=O)C(C)(C)NC(=O)[C@@H](NC(=O)[C@H](CCCCNC(C)=O)NC(=O)[C@H](C)NC(=O)[C@H](CCCNC(=N)N)NC(=O)[C@@H](NC(=O)[C@H](CCCCN)NC(=O)[C@H](CCC(=O)O)NC(=O)[C@H](CCCNC(=N)N)NC(=O)CNC(=O)[C@H](CCC(=O)O)NC(=O)[C@H](CC(C)C)NC(C)=O)C(C)C)[C@@H](C)CC)C(=O)N[C@@H](CO)C(=O)N[C@H](C(=O)N[C@@H](Cc1c[nH]c2ccccc12)C(=O)N[C@@H](CO)C(=O)NC(C)(C)C(=O)N[C@@H](CCCNC(=N)N)C(=O)N[C@@H](CCCCN)C(=O)N[C@@H](CCCCNC(C)=O)C(N)=O)[C@@H](C)O)C(=O)O)C(=O)O)C(=O)O) [peptide of SEQ ID NO: 21] | 0.65 nM | 93%
2 | Ac-LEGREKVRAK(Ac)I[Aib][Aib]EGK([TTDS-TTDS-TTDS-γGlu-γGlu-γGlu-Palmitoyl])STFS[Aib]RAK(Ac)-NH2 [peptide of SEQ ID NO: 2] | 2.4 nM | 99%
3 | Ac-LEGREKVRAK(Ac)I[Aib][Aib]EGK([TTDS-TTDS-γGlu-γGlu-γGlu-Palmitoyl])STWS[dK]RKK(Ac)-NH2 [peptide of SEQ ID NO: 18] | 1.54 nM | 92%
4 | LEGREKVRAXIXXEGXSTFSXRAX (Ac-L-E-G-R-E-K-V-R-A-K(Ac)-I-Aib-Aib-E-G-K(PEG2DGA-PEG2DGA-PEG2DGA-gE-gE-gE-Palm)-S-T-F-S-Mly-R-A-K(Ac)-NH2) [peptide of SEQ ID NO: 22] | 1 nM | 92%
5 | Ac-LEGREKVRAK(Ac)I[Aib][Aib]EGK([AEEA-AEEA-AEEA-γGlu-γGlu-γGlu-Palmitoyl])STWS[Aib]RKK(Ac)-NH2 (SMILES CCCCCCCCCCCCCCCC(=O)N[C@@H](CCC(=O)N[C@@H](CCC(=O)N[C@@H](CCC(=O)NCCOCCOCC(=O)NCCOCCOCC(=O)NCCOCCOCC(=O)NCCCC[C@H](NC(=O)CNC(=O)[C@H](CCC(=O)O)NC(=O)C(C)(C)NC(=O)C(C)(C)NC(=O)[C@@H](NC(=O)[C@H](CCCCNC(C)=O)NC(=O)[C@H](C)NC(=O)[C@H](CCCNC(=N)N)NC(=O)[C@@H](NC(=O)[C@H](CCCCN)NC(=O)[C@H](CCC(=O)O)NC(=O)[C@H](CCCNC(=N)N)NC(=O)CNC(=O)[C@H](CCC(=O)O)NC(=O)[C@H](CC(C)C)NC(C)=O)C(C)C)[C@@H](C)CC)C(=O)N[C@@H](CO)C(=O)N[C@H](C(=O)N[C@@H](Cc1c[nH]c2ccccc12)C(=O)N[C@@H](CO)C(=O)NC(C)(C)C(=O)N[C@@H](CCCNC(=N)N)C(=O)N[C@@H](CCCCN)C(=O)N[C@@H](CCCCNC(C)=O)C(N)=O)[C@@H](C)O)C(=O)O)C(=O)O)C(=O)O) [peptide of SEQ ID NO: 19] | 11.5 nM | 94%
6 | Ac-LEGREKVRAK(Ac)I[Aib][Aib]EGK([TTDS-TTDS-TTDS-γGlu-γGlu-γGlu-Palmitoyl])STF[Aib]KRAK(Ac)-NH2 [peptide of SEQ ID NO: 15] | 2.1 nM | 85%
7 | Ac-LEGREKVRAK(Ac)I[Aib][Aib]EGK([TTDS-TTDS-TTDS-γGlu-γGlu-γGlu-Stearoyl])STWS[Aib]RKK(Ac)-NH2 [peptide of SEQ ID NO: 20] | 0.15 nM | 96%
8 | Ac-LEGREKVRAK(Ac)I[Aib][Aib]EGK([TTDS-TTDS-γGlu-γGlu-γGlu-Palmitoyl])STWS[dK]RAK(Ac)-NH2 [peptide of SEQ ID NO: 17] | 4.6 nM | 91%
9 | Ac-LEGRELVRAK(Ac)I[Aib][Aib]EGK([TTDS-TTDS-TTDS-γGlu-γGlu-γGlu-Palmitoyl])STFS[αMeK]RAK(Ac)-NH2 [peptide of SEQ ID NO: 23] | 11.1 nM | 92%
10 | Ac-LEGREKVRAK(Ac)I[Aib][Aib]EGK([TTDS-TTDS-TTDS-γGlu-γGlu-γGlu-Palmitoyl])STFS[αMeK]RAK(Ac)-NH2 [peptide of SEQ ID NO: 3] | 0.34 nM | 97%
11 | Ac-LEGREKVRAK(Ac)I[Aib][Aib]EGK([TTDS-TTDS-γGlu-γGlu-γGlu-Palmitoyl])STFS[dK]RAK(Ac)-NH2 [peptide of SEQ ID NO: 16] | 6.8 nM | 88%

Further lines, results first:

Row | EC50 (nM), OVCAR 5 cells (cAMP) | EMax, OVCAR 5 cells (cAMP) | Binder
12 | 0.21 nM | 89% | Ac-LEGREKVRAK(Ac)I[Aib][Aib]EGK([TTDS-TTDS-TTDS-γGlu-γGlu-γGlu-Stearoyl])STWS[αMeK]RAK(Ac)-NH2 [peptide of SEQ ID NO: 30]
13 | 28.7 nM | 100% | Ac-LEGREQVRAK(Ac)I[Aib][Aib]EGK([TTDS-TTDS-TTDS-γGlu-γGlu-γGlu-Palmitoyl])STFS[αMeK]RAK(Ac)-NH2 [peptide of SEQ ID NO: 25]
14 | 1.6 nM | 88% | Ac-LEGREKVR[Aib]K(Ac)I[Aib][Aib]EGK([TTDS-TTDS-TTDS-γGlu-γGlu-γGlu-Palmitoyl])STFS[αMeK]RAK(Ac)-NH2 [peptide of SEQ ID NO: 29]
15 | 0.62 nM | 88% | Ac-LEGRE[hLys]VRAK(Ac)I[Aib][Aib]EGK([TTDS-TTDS-TTDS-γGlu-γGlu-γGlu-Palmitoyl])STFS[αMeK]RAK(Ac)-NH2 [peptide of SEQ ID NO: 28]
16 | 36.4 nM | 100% | Ac-LEGREFVRAK(Ac)I[Aib][Aib]EGK([TTDS-TTDS-TTDS-γGlu-γGlu-γGlu-Palmitoyl])STFS[αMeK]RAK(Ac)-NH2 [peptide of SEQ ID NO: 24]
17 | 0.19 nM | – | Ac-LEGRERVRAK(Ac)I[Aib][Aib]EGK([TTDS-TTDS-TTDS-γGlu-γGlu-γGlu-Palmitoyl])STWS[Aib]RRK(Ac)-NH2 [peptide of SEQ ID NO: 31]
18 | 0.43 nM | 96% | Ac-LEGREKVRAK(Ac)I[Aib][Aib]EGK([AEEA-AEEA-AEEA-AEEA-γGlu-γGlu-γGlu-Stearoyl])STFS[αMeK]RAK(Ac)-NH2 (SMILES CCCCCCCCCCCCCCCCCC(=O)N[C@@H](CCC(=O)N[C@@H](CCC(=O)N[C@@H](CCC(=O)NCCOCCOCC(=O)NCCOCCOCC(=O)NCCOCCOCC(=O)NCCOCCOCC(=O)NCCCC[C@H](NC(=O)CNC(=O)[C@H](CCC(=O)O)NC(=O)C(C)(C)NC(=O)C(C)(C)NC(=O)[C@@H](NC(=O)[C@H](CCCCNC(C)=O)NC(=O)[C@H](C)NC(=O)[C@H](CCCNC(=N)N)NC(=O)[C@@H](NC(=O)[C@H](CCCCN)NC(=O)[C@H](CCC(=O)O)NC(=O)[C@H](CCCNC(=N)N)NC(=O)CNC(=O)[C@H](CCC(=O)O)NC(=O)[C@H](CC(C)C)NC(C)=O)C(C)C)[C@@H](C)CC)C(=O)N[C@@H](CO)C(=O)N[C@H](C(=O)N[C@@H](Cc1ccccc1)C(=O)N[C@@H](CO)C(=O)N[C@@](C)(CCCCN)C(=O)N[C@@H](CCCNC(=N)N)C(=O)N[C@@H](C)C(=O)N[C@@H](CCCCNC(C)=O)C(N)=O)[C@@H](C)O)C(=O)O)C(=O)O)C(=O)O) [peptide of SEQ ID NO: 26]
19 | 1.8 nM | 98% | Ac-LEGRERVRAK(Ac)I[Aib][Aib]EGK([TTDS-TTDS-TTDS-γGlu-γGlu-γGlu-Palmitoyl])STFS[αMeK]RAK(Ac)-NH2 [peptide of SEQ ID NO: 27]
20 | 0.1 nM | 97% | LEGREKVRAXIXXEGXSTFSXRAX (Ac-L-E-G-R-E-K-V-R-A-K(Ac)-I-Aib-Aib-E-G-K(PEG2DGA-PEG2DGA-PEG2DGA-gE-gE-gE-Stea)-S-T-F-S-Mly-R-A-K(Ac)-NH2) [peptide of SEQ ID NO: 32]
